Data published in the supplement of paper PMC10567573.
± gives the standard deviation.

Assay: protein stability index of a GFP-peptide fusion (GPS, HEK-293T) (PSI 1-6); higher = more stable
[1] = treatment: DMSO, c terminus: a fixed tail appended
[2] = treatment: MLN4924 1 uM, 8 h, c terminus: a fixed tail appended
[3] = treatment: DMSO, c terminus: native
[4] = treatment: MLN4924 1 uM, 8 h, c terminus: native
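Also: 24-mer peptide tiles fused after GFP, lentivirally expressed, FACS-sorted into six equal bins by GFP/DsRed ratio, decoded by Illumina sequencing, PSI is the read-weighted mean bin number.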

| Sequence | protein stability index [1] | protein stability index [2] | protein stability index [3] | protein stability index [4] |
| --- | --- | --- | --- | --- |
| PNCFRKDPDINMHPFFFALGKILS [FADS1] | 2.1 ± 0.51 | 2.33 ± 0.5 |  |  |
| ELLATGDKGGRVVIFQREQESKNQ [PPP2R2B] | 3.79 ± 0.82 | 3.91 ± 0.34 |  |  |
| LFLGQGIQVSLYCQEWYARRHCPL [SOAT2] | 2.83 ± 0.46 | 2.57 ± 0.46 |  |  |
| YPEDSSWAAKAPGASSREEPPEEP [SPDEF] | 4.21 ± 0.43 | 4.64 ± 0.51 |  |  |
| DQNTVVTRQLSEENANLQEYVEKE [MTUS2] | 5.41 ± 0.25 | 5.51 ± 0.21 |  |  |
| STYRPLPDPSVWSRRYTEMALPFF [MYORG] | 2.36 ± 0.4 | 2.22 ± 0.13 |  |  |
| AGGNSSSSAAMQSSCSSTSGGGGG [CCDC6] | 5.08 ± 0.11 | 5.035 ± 0.022 |  |  |
| SVVNVGCGPAEERVLLTGLHAVAD [YPEL3] | 3 ± 0.78 | 3.29 ± 0.7 |  |  |
| CDQYSCALTGPVVDIVTGHARLSD [DHCR7] | 3.57 ± 0.25 | 3.71 ± 0.17 |  |  |
| LQRLGELQSELAGVADFSATYLRC [INTS4] | 2.72 ± 0.22 | 2.93 ± 0.34 |  |  |
| RERREEDRAPAEQVPRSPVIKISY [PWWP2B] | 4.34 ± 0.34 | 4.08 ± 0.18 |  |  |
| NLQDLCRIKIRQCIGLQNLKLLDE [ASB7] | 3.57 ± 0.24 | 3.56 ± 0.31 |  |  |
| PLLLKEILKHTPKEHPDVQLLEDA [NET1] | 3.82 ± 0.41 | 4.06 ± 0.21 |  |  |
| EFRRWRDTGVAFELRDSSAYHVPN [DNAAF3] | 2.75 ± 0.24 | 3 ± 0.32 |  |  |
| LREKLLEAEQSLRNLEDIHMSLEK [TEKT4] | 3.03 ± 0.52 | 3.3 ± 0.63 |  |  |
| VYHSYDLPWFRTLSWYFLLCVNYF [CDS1] | 2.85 ± 0.42 | 2.63 ± 0.51 |  |  |
| TGEDSAFQEPDSPLPPARSPTEPG [WEE1] | 5.62 ± 0.15 | 5.44 ± 0.34 |  |  |
| LVLSEDRKSVRYTRQKKNLPDSPL [TRIM15] | 3.48 ± 0.33 | 3.77 ± 0.15 |  |  |
| DFQPREEAMLYHNQTAELRELLEF [P3H4] | 3.96 ± 0.28 | 4.01 ± 0.16 |  |  |
| AKELTAEKRLEGQEEEEDNRDSSM [CHGA] | 5.67 ± 0.22 | 5.61 ± 0.31 |  |  |
| SKPKNSVWKRLKSPFRKKKDSVT [RIT1] |  |  | 3.55 ± 0.49 | 3 ± 0.43 |
| VIKISYSTPQGKGEVVKIPSRVHG [PWWP2B] | 2.5 ± 0.2 | 2.79 ± 0.3 |  |  |
| SLIEDLQRELEIPEQQVDMHDMLL [ZNF449] | 3.56 ± 0.35 | 3.51 ± 0.34 |  |  |

| Sequence | protein stability index [1] | protein stability index [2] | protein stability index [3] | protein stability index [4] |
| --- | --- | --- | --- | --- |
| LCWDPVQRVLFSGSSDHSVIMWDI [WDFY2] | 2.26 ± 0.34 | 1.93 ± 0.45 |  |  |
| SPPVMVAGGRVFVLPCIQQIQRIS [FLOT1] | 2.15 ± 0.5 | 1.96 ± 0.27 |  |  |
| VSGINHDVTSGDHGDYFRLLLPGI [CPN1] | 2.46 ± 0.28 | 2.23 ± 0.38 |  |  |
| DRAVNDYPSLYYPEMYILKGGYKE [CDC25B] | 2.67 ± 0.25 | 2.85 ± 0.46 |  |  |
| METSAPRAGSQVVATTARHSAAYR [FUNDC2] | 4.5 ± 0.19 | 4.2 ± 0.11 |  |  |
| TVEKDESHAGKVVLRSWYEKNKHI [FAM50A] | 3.74 ± 0.33 | 3.87 ± 0.18 |  |  |
| ETLDYGKNYNYGMHYCAVPPRGPL [NEUROD6] | 2.65 ± 0.31 | 2.68 ± 0.14 |  |  |
| PYQVNGVNPAYPESRYTSDYFISY [ETS1] | 2.18 ± 0.18 | 2.27 ± 0.21 |  |  |
| DESGGPDNEDYPLFRELWRYHFAT [KLHDC10] | 2.95 ± 0.29 | 2.99 ± 0.27 |  |  |
| AAVKENQMTPTNLAVCLAPSLFHL [DLC1] | 2.37 ± 0.06 | 2.61 ± 0.33 |  |  |
| DIISTVEFNHTGELLATGDKGGRV [PPP2R2B] | 3.16 ± 0.43 | 3.25 ± 0.5 |  |  |
| KKHGTQNKRAALQALKRKKRFEKQ [CHMP4C] | 4.52 ± 0.3 | 4.52 ± 0.19 |  |  |
| NIQAGINENDFYDGAWCAGRNDLQ [CPXM2] |  | 3.48 ± 0.71 |  |  |
| IYSVVDLGMYQKVTSYCRSATLVG [SLC19A2] | 2.69 ± 0.42 | 2.74 ± 0.69 |  |  |
| NQQLRNELQLEQSRAANQEQRAND [CEP70] | 5.48 ± 0.11 | 5.42 ± 0.24 |  |  |
| ARGDAVCTACGSVLEDNIIVSEVQ [BRF1] | 4.38 ± 0.19 | 4.34 ± 0.077 |  |  |
| TARRLLSQVRALDRFQVPTTEVNA [NFE2L1] | 3.02 ± 0.07 |  |  |  |
| SLSGVMLTDVSPEPLQALLERASA [PRAME] | 3.61 ± 0.4 | 3.51 ± 0.31 |  |  |
| DGPGGNLAHAFQPGPGIGGDAHFD [MMP1] | 4.95 ± 0.3 | 4.9 ± 0.14 |  |  |
| SSVECYNLETNEWRYVSSLPQPLA [KLHL14] | 2.6 ± 0.19 | 2.92 ± 0.24 |  |  |
| SQILQNKKHKNSQLDKNSEVYQEV [FAM98B] | 4.46 ± 0.42 | 4.81 ± 0.067 |  |  |
| GDKGALQRLIVGNSALKDKEDQFG [INVS] | 4.62 ± 0.21 | 4.72 ± 0.093 |  |  |
| RKGLQHGFFDFETFDVDEYEHYER [CDC14A] | 3.93 ± 0.31 | 3.94 ± 0.41 |  |  |

| Sequence | protein stability index [1] | protein stability index [2] | protein stability index [3] | protein stability index [4] |
| --- | --- | --- | --- | --- |
| APDGSYFAWSQGHRTVKLVPWSQC [WSB1] | 2.57 ± 0.47 | 2.8 ± 0.42 |  |  |
| DILPIHPPSGNSDLDPDAQNPML [BTBD10] |  |  | 5.46 ± 0.17 | 5.21 ± 0.22 |
| EEDSILIIPTPDEEEKILRVKLEE [ZNF24] | 5.03 ± 0.14 | 5 ± 0.31 |  |  |
| YCLTCEVPTCSMCKVFGIHKACEV [TRIM63] | 2.69 ± 0.45 | 2.8 ± 0.33 |  |  |
| MTELRQRVAHEPVAPPEDKESESE [CDS2] | 5.39 ± 0.26 | 5.44 ± 0.23 |  |  |
| ILCNKTAYQEVFKPENISLRNKLR [SMG5] | 2.46 ± 0.24 | 2.77 ± 0.23 |  |  |
| LKPLLSPSSETTVTVELPEADRAG [LYSMD4] | 5.04 ± 0.23 | 5.07 ± 0.28 |  |  |
| ILHIPQVTKLCVQFLNDQISVQNY [KLHL14] | 2.54 ± 0.45 | 2.51 ± 0.52 |  |  |
| GSEENGRYFSLSLMSGALAVNQKI [PCDHGC5] | 2.49 ± 0.2 | 2.6 ± 0.23 |  |  |
| APFPNVSTSLLTSAGNRTHKARTR [ADAMTSL2] | 4.68 ± 0.25 | 4.64 ± 0.29 |  |  |
| ERLLAVAERYGLSGSDVLDNVAYA [RAD51] | 2.8 ± 0.23 | 2.95 ± 0.094 |  |  |
| KSSKYGEGHQAWIVGIVEKGNRTA [SEPHS2] | 2.56 ± 0.19 | 2.56 ± 0.42 |  |  |
| ESAKDWETSPLPGMLAPAAGPAFD [PPFIA4] | 4.62 ± 0.076 | 4.61 ± 0.33 |  |  |
| KSVMLQIAATELEKEESRREAEKQ [TNNI2] | 5.07 ± 0.092 | 5.25 ± 0.26 |  |  |
| MRHIRFLKNEVERLKKQLRAAQLQ [CCDC6] | 2.31 ± 0.25 | 2.23 ± 0.25 |  |  |
| EDSAQNCFALIPKAPKKDVIKMLV [EFHC1] | 2.69 ± 0.4 | 2.97 ± 0.26 |  |  |
| ELAPDFVGDILWEHLEILQKEDVK [ETS1] | 3.95 ± 0.48 | 4.17 ± 0.29 |  |  |
| CRTYIIHYYLMDDTVEIREVHERN [EFHC1] | 2.55 ± 0.38 | 2.39 ± 0.29 |  |  |
| LVQLPNINRVSTCYSEEITVCGDL [PPEF2] | 2.42 ± 0.42 | 2.65 ± 0.44 |  |  |
| KICESLNVPVDDSLVKELLRMCSH [EFHC1] | 2.11 ± 0.21 | 2.09 ± 0.44 |  |  |
| NITVVKGIRLSENVIDRMKESSPS [CHCHD3] | 3.66 ± 0.29 | 3.51 ± 0.28 |  |  |
| FPGPQEHTQVLPDVRLLPRRLPLA [DYRK1B] | 3.37 ± 0.083 | 3.58 ± 0.2 |  |  |
| SNVRGSLNVNLNSVVLRRARGGAV [DUSP5] | 3.74 ± 0.24 | 4.1 ± 0.29 |  |  |

| Sequence | protein stability index [1] | protein stability index [2] | protein stability index [3] | protein stability index [4] |
| --- | --- | --- | --- | --- |
| DFTLSKTNMARIREIMEKFGKQPV [CPXM2] | 2.71 ± 0.088 | 2.62 ± 0.33 |  |  |
| FIGETLLSMNWAIVADILLYVVIP [SPNS1] | 3.29 ± 0.34 | 3.45 ± 0.25 |  |  |
| SGRRNWCSYVVTRTISCHVQNGTY [EMID1] | 2.12 ± 0.41 | 1.93 ± 0.37 |  |  |
| SDPENWDRKLHSRPRKLYKHSSTS [BTBD10] | 3.77 ± 0.27 | 3.94 ± 0.24 |  |  |
| AAFQTILTEIYRIVSQKQMSDRRE [RAB11A] | 2.77 ± 0.42 | 2.52 ± 0.36 |  |  |
| PASYTAPIMSGQGLAGFFASVAMI [SLC29A1] | 2.59 ± 0.58 | 2.44 ± 0.48 |  |  |
| LRSFEGLMGTIKSKVSGGKRAWP [TPD52L3] |  |  | 2.94 ± 0.91 | 3.63 ± 0.26 |
| LVTGLAIEEACYAQTIPTKDRLEG [AUH] | 3.02 ± 0.34 | 3.13 ± 0.27 |  |  |
| LVNTSENLSKSRKILRSMSRKVTT [VTI1B] | 3.33 ± 0.29 | 3.57 ± 0.22 |  |  |
| DHSSRELSKILAKLERLKQQNEDL [FUT8] | 3.89 ± 0.12 | 4.03 ± 0.16 |  |  |
| DCLQGIRKGLQHGFFDFETFDVDE [CDC14A] | 3.33 ± 0.3 | 3.62 ± 0.61 |  |  |
| EEGPTVVLNPHPSLGYKEIRKGES [CHGA] | 4.96 ± 0.29 | 5.03 ± 0.27 |  |  |
| ELAEATWCGISTDMWRSENQNRAY [ZBED1] | 2.84 ± 0.33 | 2.8 ± 0.44 |  |  |
| PGEEKFENLEGVPSVCSENIHPQV [ZNF263] | 4.96 ± 0.23 | 4.96 ± 0.38 |  |  |
| FYQSPYDSEQVPQALRRLRPRTRK [NCF4] | 4.63 ± 0.37 | 4.68 ± 0.3 |  |  |
| RLDKHLYVIGGRNETGYLSSVECY [KLHL14] | 2.28 ± 0.17 | 2.14 ± 0.2 |  |  |
| DLFVENMPGFPDNIRPSSSGGYWV [APMAP] | 2.32 ± 0.26 | 2.49 ± 0.34 |  |  |
| SLQTGNHSNGPTDLSMKGGASTTS [NOL4L] | 4.12 ± 0.25 | 4.31 ± 0.27 |  |  |
| LSVRSVFFGVFQSFVVLLYILDNE [CLPTM1] | 3.19 ± 0.75 | 2.92 ± 0.55 |  |  |
| PGTLLKTSPSPERSLLLKYARTPT [TRIM14] | 3.27 ± 0.22 | 3.15 ± 0.12 |  |  |
